Results on one molecule are retold here after patent publication US20170260251A1 (ANSUN BIOPHARMA, published 2017).

In assay [1] the target is T1, mouse coagulation factor IXa (mouse, UniProt P16294 47-192; P16294 237-471).
T1 construct: also called IXa (mice)
The experiment in a line: protease inhibition constant Ki, mouse enzyme.

Another assay has as its target T2, mouse thrombin (mouse, UniProt P19221 325-618).
T2 construct: also called Thrombin (mice)
The experiment in a line: protease inhibition constant Ki, mouse enzyme.

The next assay concerns the target T3, mouse kallikrein (mouse, UniProt P26262 20-638, limits assumed).
T3 construct: also called Kallikrein (mice)
The experiment in a line: protease inhibition constant Ki, mouse enzyme.

Assay [2] has as its target T4, mouse coagulation factor Xa (mouse, UniProt O88947 41-180; O88947 232-481, limits assumed).
T4 construct: also called Xa (mice)
The experiment in a line: protease inhibition constant Ki, mouse enzyme.

Another assay addresses T5, mouse plasmin (mouse, UniProt P20918 98-812).
T5 construct: also called Plasmin (mice)
Nature of the assay: protease inhibition constant Ki, mouse enzyme.

The target in another assay is human plasmin (human, UniProt P00747 97-810). The experiment in a line: protease inhibition constant Ki, human enzyme.
Assay [3] concerns the target T6, human coagulation factor VIIa (human, UniProt P08709 61-466).
T6 sequence (looked up): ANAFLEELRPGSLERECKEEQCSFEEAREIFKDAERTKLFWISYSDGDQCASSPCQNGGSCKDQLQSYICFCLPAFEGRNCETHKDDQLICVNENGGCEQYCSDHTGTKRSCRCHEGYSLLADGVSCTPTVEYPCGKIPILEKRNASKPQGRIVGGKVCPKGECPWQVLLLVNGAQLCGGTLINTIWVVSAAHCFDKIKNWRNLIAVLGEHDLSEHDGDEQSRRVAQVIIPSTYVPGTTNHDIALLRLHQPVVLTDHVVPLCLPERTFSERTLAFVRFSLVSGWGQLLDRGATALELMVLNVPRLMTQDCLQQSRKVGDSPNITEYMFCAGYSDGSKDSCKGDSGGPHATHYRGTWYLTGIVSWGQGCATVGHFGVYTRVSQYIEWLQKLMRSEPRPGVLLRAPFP
The experiment in a line: protease inhibition constant Ki, human enzyme.

Another assay deals with human thrombin (human, UniProt P00734 328-622). The experiment in a line: protease inhibition constant Ki, human enzyme.
Another assay addresses human kallikrein (human, UniProt P03952 20-638, limits assumed). The experiment in a line: protease inhibition constant Ki, human enzyme.
Assay [4] has as its target human coagulation factor Xa (human, UniProt P00742 41-179; P00742 235-488, limits assumed). The experiment in a line: protease inhibition constant Ki, human enzyme.

T5 sequence (P20918 98-812 limits assumed): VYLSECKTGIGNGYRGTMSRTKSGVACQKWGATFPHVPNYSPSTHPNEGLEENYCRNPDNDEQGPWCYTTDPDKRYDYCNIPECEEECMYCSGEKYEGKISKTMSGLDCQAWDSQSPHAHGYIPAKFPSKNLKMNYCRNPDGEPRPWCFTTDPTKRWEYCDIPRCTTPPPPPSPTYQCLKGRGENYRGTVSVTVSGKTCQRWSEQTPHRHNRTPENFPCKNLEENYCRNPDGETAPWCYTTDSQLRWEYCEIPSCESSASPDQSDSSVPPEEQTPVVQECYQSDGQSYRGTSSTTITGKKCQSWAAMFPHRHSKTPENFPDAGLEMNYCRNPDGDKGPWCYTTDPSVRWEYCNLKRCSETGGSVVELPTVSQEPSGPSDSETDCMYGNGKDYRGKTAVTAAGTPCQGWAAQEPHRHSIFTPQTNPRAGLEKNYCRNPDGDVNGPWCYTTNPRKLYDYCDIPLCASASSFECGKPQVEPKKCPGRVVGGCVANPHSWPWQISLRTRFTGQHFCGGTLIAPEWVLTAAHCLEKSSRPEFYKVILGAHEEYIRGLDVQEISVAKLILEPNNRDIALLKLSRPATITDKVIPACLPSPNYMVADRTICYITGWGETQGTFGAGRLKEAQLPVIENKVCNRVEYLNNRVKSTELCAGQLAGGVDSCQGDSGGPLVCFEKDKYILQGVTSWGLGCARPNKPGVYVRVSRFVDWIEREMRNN
T3 sequence (P26262 20-638 limits assumed): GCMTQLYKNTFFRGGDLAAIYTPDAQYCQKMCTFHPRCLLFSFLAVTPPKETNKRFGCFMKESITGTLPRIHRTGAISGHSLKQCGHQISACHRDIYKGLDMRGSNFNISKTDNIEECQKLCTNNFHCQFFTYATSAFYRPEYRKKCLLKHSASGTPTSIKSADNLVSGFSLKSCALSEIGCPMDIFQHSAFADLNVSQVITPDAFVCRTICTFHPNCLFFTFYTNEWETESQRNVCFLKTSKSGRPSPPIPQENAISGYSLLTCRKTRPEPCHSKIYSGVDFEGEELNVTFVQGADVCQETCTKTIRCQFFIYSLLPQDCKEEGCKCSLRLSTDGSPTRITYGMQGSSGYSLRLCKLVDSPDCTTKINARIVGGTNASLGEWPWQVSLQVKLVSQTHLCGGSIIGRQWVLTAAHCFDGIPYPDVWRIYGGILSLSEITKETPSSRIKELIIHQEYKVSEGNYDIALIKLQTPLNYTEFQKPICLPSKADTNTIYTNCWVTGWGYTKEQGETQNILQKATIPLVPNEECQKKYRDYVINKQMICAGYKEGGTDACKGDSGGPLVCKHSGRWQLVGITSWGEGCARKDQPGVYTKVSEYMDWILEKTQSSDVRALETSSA
human plasmin, sequence (P00747 97-810 limits assumed): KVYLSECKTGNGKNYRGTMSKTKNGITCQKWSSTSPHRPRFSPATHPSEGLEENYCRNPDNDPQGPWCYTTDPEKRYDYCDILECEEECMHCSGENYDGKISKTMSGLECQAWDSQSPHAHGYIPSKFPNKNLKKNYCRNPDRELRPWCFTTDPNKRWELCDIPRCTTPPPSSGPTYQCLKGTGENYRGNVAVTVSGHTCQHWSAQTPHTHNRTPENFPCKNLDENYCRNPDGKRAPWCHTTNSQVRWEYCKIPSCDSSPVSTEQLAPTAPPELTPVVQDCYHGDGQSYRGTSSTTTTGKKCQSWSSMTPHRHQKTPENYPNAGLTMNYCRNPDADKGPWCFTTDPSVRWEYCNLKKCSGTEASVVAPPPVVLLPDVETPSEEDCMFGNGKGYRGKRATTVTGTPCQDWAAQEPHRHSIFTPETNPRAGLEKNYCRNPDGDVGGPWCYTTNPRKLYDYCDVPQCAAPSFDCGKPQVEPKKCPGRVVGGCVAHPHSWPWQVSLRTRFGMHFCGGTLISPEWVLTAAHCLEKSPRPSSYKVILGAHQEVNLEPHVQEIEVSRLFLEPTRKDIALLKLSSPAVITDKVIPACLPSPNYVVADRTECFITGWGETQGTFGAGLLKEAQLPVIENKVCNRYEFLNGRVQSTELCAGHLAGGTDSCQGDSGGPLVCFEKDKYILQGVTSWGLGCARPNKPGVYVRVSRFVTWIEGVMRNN
T1 sequence (P16294 47-192 limits assumed, chain 1 of 2): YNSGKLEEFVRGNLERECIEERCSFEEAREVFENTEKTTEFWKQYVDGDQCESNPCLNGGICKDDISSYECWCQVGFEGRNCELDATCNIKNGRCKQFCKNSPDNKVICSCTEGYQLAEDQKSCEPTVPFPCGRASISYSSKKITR
T1 sequence (P16294 237-471 limits assumed, chain 2 of 2): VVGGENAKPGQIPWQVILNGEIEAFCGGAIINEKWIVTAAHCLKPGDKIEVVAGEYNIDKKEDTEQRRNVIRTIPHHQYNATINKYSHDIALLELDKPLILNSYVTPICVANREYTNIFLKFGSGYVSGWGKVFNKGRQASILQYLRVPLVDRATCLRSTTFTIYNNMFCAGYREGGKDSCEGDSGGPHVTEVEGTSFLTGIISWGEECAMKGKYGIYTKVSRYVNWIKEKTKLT
T4 sequence (O88947 41-180 limits assumed, chain 1 of 2): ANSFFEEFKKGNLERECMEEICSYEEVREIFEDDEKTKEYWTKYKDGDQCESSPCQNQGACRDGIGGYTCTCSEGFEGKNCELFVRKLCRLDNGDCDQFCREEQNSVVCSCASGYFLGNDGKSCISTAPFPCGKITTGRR
T4 sequence (O88947 232-481 limits assumed, chain 2 of 2): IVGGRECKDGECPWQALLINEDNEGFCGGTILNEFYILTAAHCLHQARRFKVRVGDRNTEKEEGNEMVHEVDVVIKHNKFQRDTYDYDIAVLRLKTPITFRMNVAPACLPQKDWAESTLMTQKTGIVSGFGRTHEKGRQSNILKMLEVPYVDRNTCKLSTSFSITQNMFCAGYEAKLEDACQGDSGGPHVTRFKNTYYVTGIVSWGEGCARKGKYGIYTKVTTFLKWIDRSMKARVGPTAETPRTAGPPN
human kallikrein, sequence (P03952 20-638 limits assumed): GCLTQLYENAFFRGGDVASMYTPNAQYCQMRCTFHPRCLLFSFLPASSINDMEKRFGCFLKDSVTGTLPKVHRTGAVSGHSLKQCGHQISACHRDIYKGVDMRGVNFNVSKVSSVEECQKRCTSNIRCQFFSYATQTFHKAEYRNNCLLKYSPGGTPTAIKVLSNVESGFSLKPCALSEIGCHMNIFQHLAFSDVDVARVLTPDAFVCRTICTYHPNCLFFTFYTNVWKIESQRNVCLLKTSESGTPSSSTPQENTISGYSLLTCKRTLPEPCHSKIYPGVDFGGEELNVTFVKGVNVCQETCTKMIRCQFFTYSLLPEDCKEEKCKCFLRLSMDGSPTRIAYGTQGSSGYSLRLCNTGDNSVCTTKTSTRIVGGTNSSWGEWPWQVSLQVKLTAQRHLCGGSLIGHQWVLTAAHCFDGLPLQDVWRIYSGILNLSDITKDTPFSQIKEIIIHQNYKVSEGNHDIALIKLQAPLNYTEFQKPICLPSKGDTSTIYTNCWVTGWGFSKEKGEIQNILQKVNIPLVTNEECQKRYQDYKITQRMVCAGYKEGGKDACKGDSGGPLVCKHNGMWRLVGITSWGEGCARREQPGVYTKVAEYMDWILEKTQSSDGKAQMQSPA
human coagulation factor Xa, sequence (P00742 41-179 limits assumed, chain 1 of 2): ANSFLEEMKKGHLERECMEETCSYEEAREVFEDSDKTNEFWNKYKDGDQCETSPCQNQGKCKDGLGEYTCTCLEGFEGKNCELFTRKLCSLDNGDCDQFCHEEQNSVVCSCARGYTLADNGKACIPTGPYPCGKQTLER
human coagulation factor Xa, sequence (P00742 235-488 limits assumed, chain 2 of 2): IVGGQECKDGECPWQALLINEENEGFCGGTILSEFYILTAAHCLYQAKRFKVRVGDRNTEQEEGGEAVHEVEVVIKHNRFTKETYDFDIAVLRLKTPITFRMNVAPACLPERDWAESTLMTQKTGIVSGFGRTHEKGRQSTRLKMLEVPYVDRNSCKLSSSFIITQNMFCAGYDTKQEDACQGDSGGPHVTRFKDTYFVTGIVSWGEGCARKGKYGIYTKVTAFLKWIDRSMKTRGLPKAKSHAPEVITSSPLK

B1: Ecotin variant NB141 (M84R/S82H) (other)
chain: AESVQPLEKIAPYPQAEKGMKRQVIQLTPQEDESTLKVELLIGQTLEVDCNLHRLGGKLENKTLEGWGYDYYVFDKVSSPVHTRMACPDGKKEKKFVTAYLGDAGMLRYNSKLPIVVYTPDNVDVKYRVWKAEEKIDNAVVR
As to B1, the Ki in assay [1] was found to be 0.6 nM; in the assay with mouse thrombin, 11.6 nM; in the assay with mouse kallikrein, 0.2 nM; in assay [2], 0.2 nM; with mouse plasmin, 1.2 nM; with human plasmin, 18.7 nM. For the same molecule, the inhibition constant Ki was 0.2 nM in assay [3], 1.6 nM with human thrombin, 0.07 nM with human kallikrein and 0.2 nM in assay [4].
